Experiments:
preadipocytes = test: Transmission electron microscopy of mitochondria in preadipocytes; format: cell-based; conditions: preadipocytes overexpressing FGF6 vs control
Protocol: To determine if FGF6 treatment affects the overall health condition of mitochondria, mitochondrial attributes such as mitochondria biogenesis, mass, morphology and dynamics were measured. Mitochondrial mass was measured by a cell-permeable dye (MitoTracker Green FM) and by transmission electron microscopy (EM). MitoTracker Green FM accumulates in mitochondria in live cells irrespective of mitochondrial membrane potential. The intensity of fluorescence was visualized by microscopy and quantitated by flow cytometry. Mitochondrial morphology and ultra-structure (such as cristae and granules) was assessed by EM.

WT-1 brown preadipocytes = test: Cell proliferation (MTT assay) in WT-1 brown preadipocytes; format: cell-based, murine; conditions: 200 ng/ml; 24 and 72 hours
Protocol: FIGS. 4A-4C graphically depict FGF6 induction of UCP1 expression in brown preadipocytes in a dose-dependent and time-regulated manner. Specifically, FIG. 4A depicts a dose-response curve of UCP1 expression by FGF6 at day 7. Numbers above curve indicate fold-increase relative to vehicle control. FIG. 4B depicts the fold-induction of UCP1 by vehicle control (“C”), FGF6 (“F6”) or FGF21 (“F21”) within 24 hours of treatment. FIG. 4C depicts a time-course of UCP1 expression induced by 200 ng/ml of FGF6, compared with cells differentiated in regular induction media. Numbers above curves indicate fold-induction relative to day 0. FIG. 4D depicts the effect of FGF6 on cell proliferation (measured by MTT assay) at 24 and 72 hours.
The effect of FGF6 on cell proliferation was also evaluated.

LDHA, PDK1, PKM2 = test: LDHA, PDK1 and PKM2 mRNA expression in WT-1 cells; format: cell-based, murine; conditions: WT-1, 24 hours; vs vehicle
Protocol: To test the role of specific prostaglandins (PGs) in activating UCP1 expression, WT-1 brown adipocytes were pretreated with PGE2, PGI2 and FGF6 for 24 hours. mRNA expression levels of UCP1, PTGS2, LDHA, PDK1 and PKM2 were then measured.

mature brown adipocytes [1] = test: Glucose uptake in mature brown adipocytes; format: cell-based; conditions: vs control
Protocol: The following glucose uptake assay was used to determine whether FGF6 could impact cellular glucose uptake. Specifically, glucose uptake was monitored in WT-1 brown preadipocytes and 3T3-F442A white preadipocytes in the presence or absence of FGF6. After serum starvation in DMEM/H medium containing 1% of BSA for 2-3 h, cells were washed with HEPES buffer and then incubated with or without 100 nM insulin for 30 min in DMEM/H medium containing 1% of BSA. Glucose transport was determined by the addition of 2-deoxy-[3H]glucose (0.1 mM, 0.5 μCi/mL; PerkinElmer Life and Analytical Science, Waltham, Mass.). […] Cells were then lysed in 0.1% SDS, and glucose uptake was assessed in 4 mL of scintillant using Beckman LS6500 scintillation counter (Beckman Coulter, Indianapolis Ind.). Nonspecific 2-deoxy-[3H]glucose uptake was measured in the presence of cytochalasin B (20 μM) and was subtracted from the total uptake to get specific glucose uptake. Results were expressed as the mean±s.e.m. of the indicated number of experiments. The protein content was determined by the Bradford method.
To assess mitochondrial respiration, a Seahorse Extracellular Flux Analyzer (Seahorse Bioscience Inc., North Billerica, Mass.) was used to quantify oxygen consumption rates (OCR) of differentiated human brown adipocytes. […] After adipogenic induction for 8 days, OCR was analyzed. […]

mature brown adipocytes [2] = test: Oxygen consumption rate in mature brown adipocytes (Seahorse); format: cell-based; conditions: 24 hours; vs buffer
Protocol: To assess mitochondrial respiration, a Seahorse Extracellular Flux Analyzer (Seahorse Bioscience Inc., North Billerica, Mass.) was used to quantify oxygen consumption rates (OCR) of differentiated […] brown adipocytes. Wt-1 brown preadipocyte cells were seeded on 24-well format plates and allowed to adhere overnight. After adipogenic induction for 8 days, OCR was analyzed. To measure OCR […] oxidative phosphorylation, 0.5 μM oligomycin (EMD Chemicals Inc., Gibbstown, N.J.) was added to cells. Subsequently, 0.8 μM FCCP (carbonyl cyanide-p-trifluoromethoxyphenylhydrazone) and 1 μM respiratory chain inhibitors (rotenone) were added to measure maximal respiration and basal rates of nonmitochondrial respiration. As shown in FIGS. 23A and 23B, treatment of FGF6 enhanced oxygen consumption and glucose uptake in mature brown adipocytes. Thus, FGF6 was able to activate the mature brown adipocyte's ability to use glucose and increase energy expenditure without inducing UCP-1.

B1: FGF6: fibroblast growth factor 6; recombinant human FGF from R&D Systems, or mouse FGF6 cDNA overexpressed by lentiviral vector (protein)
chain: KRQRRLYCNVGIGFHLQVLPDGRISGTHEENPYSLLEISTVERGVVSLFGVRSALFVAMNSKGRLYATPSFQEECKFRETLLPNNYNAYESDLYQGTYIALSKYGRVKRGSKVSPIMTVTHFLPRI
number of mitochondria by transmission electron microscopy (preadipocytes): fewer mitochondria
shape of mitochondria by transmission electron microscopy (preadipocytes): longer shape
effect on cell proliferation (WT-1 brown preadipocytes): virtually no effect
LDHA mRNA expression (LDHA, PDK1, PKM2): increase
PDK1 mRNA expression (LDHA, PDK1, PKM2): increase
PKM2 mRNA expression (LDHA, PDK1, PKM2): increase
glucose uptake in mature brown adipocytes (mature brown adipocytes [1]): enhanced
oxygen consumption in mature brown adipocytes (mature brown adipocytes [2]): enhanced

Reference: patent US20170173114A1, “METHODS AND COMPOSITIONS FOR INDUCTION OF UCP1 EXPRESSION” (Joslin Diabetes Center, Inc., priority 2014, published 2017)
